Measurements as given in article PMC12489471, “A multi-dentate, cooperative interaction between endo- and exo-ribonucleases within the bacterial RNA degradosome” (Nucleic Acids Research, 2025).

Assays:
PNPase = biological target: T1, PNPase (Escherichia coli, UniProt P05055); assay type: binding, E. coli; settings: SPR, 25°C, immobilized PNPase C-His; HEPES pH 7.2; 0, 12.5, 25 and 50 nM (point mutants); contact 120 s, dissociation 120 s; duplicates
T1 construct: made in house; host or cells: E. coli Evo21(DE3)
T1 sequence (P05055 whole entry, looked up): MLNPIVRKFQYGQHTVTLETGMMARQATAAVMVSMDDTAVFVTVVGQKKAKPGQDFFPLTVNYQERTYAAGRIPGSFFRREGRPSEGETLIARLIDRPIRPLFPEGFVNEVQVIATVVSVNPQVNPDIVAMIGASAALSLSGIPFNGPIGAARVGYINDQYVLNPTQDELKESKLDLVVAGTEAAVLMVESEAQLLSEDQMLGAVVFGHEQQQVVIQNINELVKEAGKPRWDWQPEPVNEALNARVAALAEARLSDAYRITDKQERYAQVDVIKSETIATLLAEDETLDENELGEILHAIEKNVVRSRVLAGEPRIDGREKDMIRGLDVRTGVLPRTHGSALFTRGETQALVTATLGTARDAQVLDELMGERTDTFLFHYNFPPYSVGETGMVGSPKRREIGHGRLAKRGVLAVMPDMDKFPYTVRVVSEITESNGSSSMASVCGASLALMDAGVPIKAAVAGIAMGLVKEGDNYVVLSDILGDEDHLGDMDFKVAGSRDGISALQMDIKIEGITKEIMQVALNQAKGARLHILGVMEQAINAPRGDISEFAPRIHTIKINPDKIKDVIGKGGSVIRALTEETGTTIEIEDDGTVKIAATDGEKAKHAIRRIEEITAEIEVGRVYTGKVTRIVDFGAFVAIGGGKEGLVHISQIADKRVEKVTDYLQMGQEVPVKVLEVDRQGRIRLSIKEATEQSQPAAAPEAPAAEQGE

full-length PNPase = test: Cryo-EM of full-length PNPase:RNase E 960–1061; assay type: binding, E. coli

B1: RNase E 960 – 1061 wildtype: wildtype RNase E peptide 960–1061 (peptide)
chain: VVETAEVVVAEPEVVAQPAAPVVAEVAAEVETVAAVEPEVTVEHNHATAPMTRAPAPEYVPEAPRHSDWQRPTFAFEGKGAAGGHTATHHASAAPARPQPVE
modifications: left off: His6, N-terminal, cleaved | MBP, N-terminal, cleaved | intein, C-terminal, cleaved | choline-binding domain, C-terminal, cleaved
B1 was tested, and the “Kd (dissociation rate constant, point mutants and wildtype)” value (PNPase) was 0.026 s⁻¹, the “location of extra density / binding on PNPase” value (full-length PNPase; cryo-EM, PNPase:RNase E 960–1061) was “bridging two b-strands” and the “interaction with KH and S1 domains of PNPase” value (full-length PNPase; preliminary cryo-EM map, full-length PNPase) was “does not interact with the KH and S1 domains of PNPase”.
